The supplement of paper PMC10126150
± gives the standard deviation of the averaged measurements.

These sequences were tested on ATP (assay: switch fluorescence ratio, 500 uM ATP over buffer (Cy3 cluster intensity, sum of 5 cycles each) (fold (ratio)); higher = stronger signal-on switching upon ATP binding; sequences stand for … in TCGTCGGCAGCGTCAGATGTGTATAAGAGACAGTTTTTTTTTTTTTTTTTTTTTTTTT…TC). Settings: aptamer strand: ATP DNA aptamer (quencher-CACCTGGGGGAGTATTGCGGAGGAAGG + anchor), 100 nM annealed; ATP concentration: 500 uM.
How it was run: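 Switching-strand clusters labelled with Cy3 on a modified Illumina MiSeq flow-cell were annealed to 100 nM quencher-labelled ATP aptamer, imaged in selection buffer, and re-imaged after 15 min with 500 uM ATP at 22 °C. This was done over five cycles with NaOH stripping and re-annealing in between. The fluorescence ratio is summed target-cycle over summed buffer-cycle Cy3 intensity per cluster, averaged per switch-domain sequence, excluding clusters outside 100-1000 RFU.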
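Also: ATP exposure 15 min at 22 °C before imaging.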

In order of falling switch fluorescence ratio:
1. AATCCGACGA  1.66 ± 0.17
2. AATGAAGTTT  1.43 ± 0.7
3. AATCCGTCAT  1.14 ± 0.017
4. AATTCCGAGG  1.14 ± 0.021
5. AATGTGAGAC  1.07 ± 0.073
6. AATCTGGACG  1.06 ± 0.048
7. AATGTAAAAC  1.06 ± 0.066
8. AATCAAACTA  1.05 ± 0.028
9. AATGTAATAA  1.05 ± 0.084
10. AATTGAAAAA  1.05 ± 0.069
11. AATGCGTTTT  1.04 ± 0.023
12. AATTATACAT  1.04 ± 0.043
13. AATCTATCCC  1.027 ± 0.0042
14. AATGAACGTT  1.03 ± 0.078
15. AATGTTTGTC  1.03 ± 0.1
16. AATTAAAGGG  1.03 ± 0.066
17. AATTGATTAG  1.03 ± 0.038
18. AATTGATTCT  1.026 ± 0.0018
19. AATATTTGAA  1.02 ± 0.021
20. AATCAGAGCG  1.021 ± 0.0021
21. AATCAGGAAG  1.02 ± 0.035
22. AATGGAATCC  1.02 ± 0.035
23. AATGTAGGGG  1.02 ± 0.045
24. AATGTAGTTG  1.02 ± 0.027
25. AATGTGGGCC  1.024 ± 0.0013
26. AATGTTTTTG  1.02 ± 0.046
27. AATTATGGGC  1.023 ± 0.0064
28. AATTCGGATG  1.02 ± 0.034
29. AATATGTTTT  1.01 ± 0.026
30. AATATTTTAT  1.014 ± 0.0022
31. AATCAGGCGA  1.013 ± 0.0032
32. AATCGATCGG  1.01 ± 0.028
33. AATCGCTCTG  1.01 ± 0.027
34. AATCGTGGAA  1.01 ± 0.019
35. AATGAAAAAC  1.007 ± 0.0054
36. AATGGAGAAC  1.01 ± 0.028
37. AATGGCGGGC  1.01 ± 0.029
38. AATGGGTGTG  1.01 ± 0.023
39. AATGTGCAAA  1.01 ± 0.022
40. AATTAGGGAA  1.01 ± 0.023
41. AATTATATCA  1.01 ± 0.01
42. AATTCGTGAA  1.01 ± 0.013
43. AATTCTGGCT  1.006 ± 0.0071
44. AATCGCTTTT  1 ± 0.053
45. AATCTAGATT  1.002 ± 0.003
46. AATCTTCTTA  1.001 ± 0.0034
47. AATGAGACAG  1 ± 0.02
48. AATGATTGCG  1 ± 0.039
49. AATGGATGCG  1 ± 0.029
50. AATGGGGACT  1 ± 0.012
51. AATGGGGGGC  1 ± 0.041
52. AATGGGTGGG  1 ± 0.062
53. AATTATGTAG  1 ± 0.014
54. AATTGCTCGT  1 ± 0.016
55. AATCAAGTCT  0.999 ± 0.011
56. AATCATCGGT  0.999 ± 0.027
57. AATATTTTCG  0.998 ± 0.038
58. AATGATATTG  0.998 ± 0.032
59. AATGGATTGG  0.997 ± 0.018
60. AATCATGCGA  0.9964 ± 0.0078
61. AATGGAATTG  0.9965 ± 0.005
62. AATGGGGACA  0.995 ± 0.051
63. AATGGTTTTC  0.9948 ± 0.0023
64. AATGTGGGGT  0.995 ± 0.026
65. AATTATGATG  0.9948 ± 0.0069
66. AATTATGTTT  0.995 ± 0.03
67. AATCGGTCGT  0.994 ± 0.031
68. AATGTGGTCT  0.994 ± 0.021
69. AATCGTCATC  0.991 ± 0.016
70. AATGGTGATG  0.9904 ± 0.0077
71. AATATGTAAT  0.989 ± 0.021
72. AATGAGATTG  0.989 ± 0.012
73. AATGTTCGGT  0.989 ± 0.011
74. AATCGGTTTG  0.987 ± 0.029
75. AATGGGGTGT  0.987 ± 0.021
76. AATCATTTTT  0.986 ± 0.026
77. AATGATAGTT  0.986 ± 0.02
78. AATGGTAGAA  0.986 ± 0.048
79. AATGCTGTAT  0.985 ± 0.011
80. AATGGGGACG  0.985 ± 0.021
81. AATGTTGGAG  0.985 ± 0.028
82. AATTAACTTT  0.985 ± 0.023
83. AATATTTAAC  0.9828 ± 0.0024
84. AATATTTTGT  0.9833 ± 0.004
85. AATCTGTCGT  0.982 ± 0.054
86. AATGTTTGGG  0.981 ± 0.021
87. AATGATTCTT  0.98 ± 0.016
88. AATTAAATA  0.979 ± 0.037
89. AATGTTCTTT  0.977 ± 0.062
90. AATCGGCGGG  0.975 ± 0.022
91. AATCGTGGGG  0.975 ± 0.017
92. AATGGGTGAA  0.97511 ± 0.00091
93. AATCTGATGG  0.974 ± 0.044
94. AATGGGCGCT  0.97198 ± 0.00095
95. AATCGTCTTG  0.97 ± 0.034
96. AATTGAAAAT  0.967 ± 0.0073
97. AATGAGGGGT  0.966 ± 0.031
98. AATGCTCGGC  0.9646 ± 0.0092
99. AATGTTAATG  0.94 ± 0.019
100. AATGTTGTGC  0.9381 ± 0.0049
